# Results published in US20200317768A1 (published 2020).
# Numbering of substitutions follows the chain as printed.
# T1: cynomolgus monkey FcγRIIa1 extracellular domain, His-tagged (cynomolgus monkey)
# T1 construct: also called cyno FcγRIIa1; cynoFcgRIIa1; not shown: C-terminal His-tag
# T1 chain: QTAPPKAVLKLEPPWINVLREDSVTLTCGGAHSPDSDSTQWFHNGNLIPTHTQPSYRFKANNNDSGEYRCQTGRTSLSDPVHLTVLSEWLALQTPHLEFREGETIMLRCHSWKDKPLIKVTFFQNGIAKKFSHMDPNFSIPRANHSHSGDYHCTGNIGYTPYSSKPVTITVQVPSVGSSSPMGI
# T2: cynomolgus monkey FcγRIIb extracellular domain, His-tagged (cynomolgus monkey)
# T2 construct: also called cyno FcγRIIb; cynoFcγRIIb; not shown: C-terminal His-tag
# T2 chain: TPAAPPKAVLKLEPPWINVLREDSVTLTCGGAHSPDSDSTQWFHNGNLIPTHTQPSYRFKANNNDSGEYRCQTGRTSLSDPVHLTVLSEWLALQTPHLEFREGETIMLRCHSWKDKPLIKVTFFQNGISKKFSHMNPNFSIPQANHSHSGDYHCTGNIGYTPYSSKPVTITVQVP
# T3: human FcγRIIaH extracellular domain, His-tagged (human, UniProt P12318 34-217)
# T3 construct: also called human FcγRIIa (type H); FcgRIIaH; not shown: C-terminal His-tag
# T3 sequence: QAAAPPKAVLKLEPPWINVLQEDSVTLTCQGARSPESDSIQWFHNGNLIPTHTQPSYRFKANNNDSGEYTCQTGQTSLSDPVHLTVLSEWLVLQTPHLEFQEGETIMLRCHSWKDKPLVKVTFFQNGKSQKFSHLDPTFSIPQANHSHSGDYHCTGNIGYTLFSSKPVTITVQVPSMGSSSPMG
# T4: cynomolgus monkey FcγRIIa3 extracellular domain, His-tagged (cynomolgus monkey)
# T4 construct: also called cyno FcγRIIa3; cynoFcgRIIa3; not shown: C-terminal His-tag
# T4 chain: T1 chain with P95T, T121A, A128S, H133P, D135N
# T5: human FcγRIIaR extracellular domain, His-tagged (human, UniProt P12318 34-217)
# T5 construct: also called human FcγRIIa (type R); FcgRIIaR; not shown: C-terminal His-tag
# T5 chain: T3 sequence with H134R
# T6: human FcγRIIb extracellular domain, His-tagged (human, UniProt P31994 43-217)
# T6 construct: also called FcgRIIb (human); not shown: C-terminal His-tag
# T6 sequence: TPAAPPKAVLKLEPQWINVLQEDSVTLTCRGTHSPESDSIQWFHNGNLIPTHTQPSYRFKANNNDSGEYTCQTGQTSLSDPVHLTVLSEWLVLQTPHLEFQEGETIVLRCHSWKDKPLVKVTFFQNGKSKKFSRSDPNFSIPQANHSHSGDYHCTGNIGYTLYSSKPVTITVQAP
# T7: cynomolgus monkey FcγRIIIaS extracellular domain, His-tagged (cynomolgus monkey, UniProt Q8SPW2 21-206 at identity 1.00))
# T7 construct: also called cyno FcγRIIIaS; cynoFcγRIIIaS; not shown: C-terminal His-tag
# T7 chain: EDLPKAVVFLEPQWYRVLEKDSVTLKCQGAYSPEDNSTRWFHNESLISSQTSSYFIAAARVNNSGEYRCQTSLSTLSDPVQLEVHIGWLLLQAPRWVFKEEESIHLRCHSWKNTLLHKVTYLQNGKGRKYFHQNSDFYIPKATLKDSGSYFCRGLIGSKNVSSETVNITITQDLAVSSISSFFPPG
# T8: cynomolgus monkey FcγRIIa2 extracellular domain, His-tagged (cynomolgus monkey)
# T8 construct: also called cyno FcγRIIa2; cynoFcgRIIa2; not shown: C-terminal His-tag
# T8 chain: T1 chain with P95T, T121A, I127K, A128S, K130N, D135N, R142Q
# B1: M103205H795-MY473/M103202L889-SK1 (antibody, human IgG1, kappa)
# heavy: QVTLKESGPVLVKPTETLTLTCTVSGIDLSHDDISWVRQAPGKGLEWVGIISYAGSTYYASWAKGRLTISKDTSKNQVVLTMTNMDPVDTATYYCARGVPAYSHGGDLWGQGTLVTVSSASTKGPSVFPLAPSSKSTSGGTAALGCLVKDYFPEPVTVSWNSGALTSGVHTFPAVLQSSGLYSLSSVVTVPSSSLGTQTYICNVNHKPSNTKVDKKVEPKSCDKTHTCPPCPTPELLTGPSVFLFPPKPKDTLMISRTPEVTCVVVDVSDEDPEVKFNWYVDGVEVHNAKTKPREEQYNSTYRVVSVLTVLHQDWLNGKEYKCKVSNKALPKPIEKTISKAKGQPREPQVYTLPPSREEMTKNQVSLTCLVKGFYPSDIAVEWESNGQPENNYKTTPPVLDSDGSFFLYSKLTVDKSRWQQGNVFSCSVMHEALHNHYTQKSLSLSP
# light: DIVMTQSPATLSLSPGERATLSCTSSQSVYHANWLSWFQQKPGQPPKLLIYWASTLAYGVPSRFSGSGSGTDFTLTISSLQPEDAATYYCAGGYGGGRYAFGQGTKVEIKRTVAAPSVFIFPPSDEQLKSGTASVVCLLNNFYPREAKVQWKVDNALQSGNSQESVTEQDSKDSTYSLSSTLTLSKADYEKHKVYACEVTHQGLSSPVTKSFNRGEC
# notes: copies: 2 + 2
# B2: M103205H795-MY475/M103202L889-SK1 (antibody, human IgG1, kappa)
# heavy: B1 heavy with T233W
# light: B1 light
# notes: copies: 2 + 2
# B3: M103205H795-MY476/M103202L889-SK1 (antibody, human IgG1, kappa)
# heavy: B1 heavy with T233Y
# light: B1 light
# notes: copies: 2 + 2
# B4: M103205H795-MY474/M103202L889-SK1 (antibody, human IgG1, kappa)
# heavy: B1 heavy with T233V
# light: B1 light
# notes: copies: 2 + 2
# Biological target: T9, human FcγRIIIaV extracellular domain, His-tagged (human, UniProt P08637 17-208)
# T9 construct: also called FcgRIIIaV; not shown: C-terminal His-tag
# Assay: SPR (BIACORE); KD of SG1 divided by KD of variant;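 note: relative to parent M103205H795-SG1 carrying the SG1 human heavy chain constant region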
# T9 sequence (P08637 17-208 F176V): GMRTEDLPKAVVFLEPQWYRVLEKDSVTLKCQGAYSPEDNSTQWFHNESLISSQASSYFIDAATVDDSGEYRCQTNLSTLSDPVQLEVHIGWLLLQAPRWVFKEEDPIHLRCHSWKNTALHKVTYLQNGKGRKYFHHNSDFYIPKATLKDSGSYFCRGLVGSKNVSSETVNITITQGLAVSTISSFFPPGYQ
row,KD fold (SG1 = 1) [fold],Binder
1,0.2,B1
2,0.2,B2
3,0.1,B3
4,0.2,B4

# Biological target: T1, cynomolgus monkey FcγRIIa1 …
# Assay: SPR (BIACORE); KD of SG1 divided by KD of variant;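 note: relative to parent M103205H795-SG1 carrying the SG1 human heavy chain constant region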
row,KD fold (SG1 = 1) [fold],Binder
1,2,B1
2,3.2,B2
3,2.3,B3
4,1.6,B4

# Biological target: T2, cynomolgus monkey FcγRIIb extracellular …
# Assay: SPR (BIACORE); KD of SG1 divided by KD of variant;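 note: relative to parent M103205H795-SG1 carrying the SG1 human heavy chain constant region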
row,KD fold (SG1 = 1) [fold],Binder
1,3.1,B1
2,8.7,B2
3,4.6,B3
4,3.6,B4

# Biological target: T3, human FcγRIIaH extracellular domain, …
# Assay: SPR (BIACORE); KD of SG1 divided by KD of variant;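 note: relative to parent M103205H795-SG1 carrying the SG1 human heavy chain constant region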
row,KD fold (SG1 = 1) [fold],Binder
1,3.1,B1
2,7.7,B2
3,4.9,B3
4,4.1,B4

# Biological target: T4, cynomolgus monkey FcγRIIa3 …
# Assay: SPR (BIACORE); KD of SG1 divided by KD of variant
row,KD fold (SG1 = 1) [fold],Binder
1,3.1,B1
2,7.4,B2
3,6.5,B3
4,3.5,B4

# Biological target: T5, human FcγRIIaR extracellular domain, …
# Assay: SPR (BIACORE); KD of SG1 divided by KD of variant
row,KD fold (SG1 = 1) [fold],Binder
1,2.2,B1
2,3.2,B2
3,4.4,B3
4,3.2,B4

# Biological target: T6, human FcγRIIb extracellular domain, …
# Assay: SPR (BIACORE); KD of SG1 divided by KD of variant
row,KD fold (SG1 = 1) [fold],Binder
1,2.1,B1
2,4.2,B2
3,3.8,B3
4,2.3,B4

# Biological target: T7, cynomolgus monkey FcγRIIIaS …
# Assay: SPR (BIACORE); KD of SG1 divided by KD of variant
row,KD fold (SG1 = 1) [fold],Binder
1,0.2,B1
2,0.2,B2
3,0.2,B3
4,0.2,B4

# Biological target: T8, cynomolgus monkey FcγRIIa2 …
# Assay: SPR (BIACORE); KD of SG1 divided by KD of variant
row,KD fold (SG1 = 1) [fold],Binder
1,2,B1
2,3.1,B2
3,3.9,B3
4,2.8,B4
